Data taken from patent US20260248946A1 (TUOJIE BIOTECH SHANGHAI, published 2026).
Substitutions are numbered along the chain they refer to.

T1: human CD79B on the surface of cells (DoHH2 / DOHH-2, WSU-DLCL2) (human, UniProt P40259 29-229)
T1 construct: whole, on cells; also called CD79B protein on the surface of DoHH2 cells; DoHH2 cell
T1 sequence (looked up): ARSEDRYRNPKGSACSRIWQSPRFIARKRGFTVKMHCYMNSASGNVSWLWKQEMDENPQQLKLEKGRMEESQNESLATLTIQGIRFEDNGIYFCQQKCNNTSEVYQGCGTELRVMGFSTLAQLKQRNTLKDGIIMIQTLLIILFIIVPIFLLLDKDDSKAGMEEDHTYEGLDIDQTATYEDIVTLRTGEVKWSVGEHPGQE

T2: fusion protein of human CD79B extracellular domain (ECD) and His tag (human, UniProt P40259 29-159)
T2 construct: also called human CD79B ECD-His; Human CD79B-His protein
T2 sequence: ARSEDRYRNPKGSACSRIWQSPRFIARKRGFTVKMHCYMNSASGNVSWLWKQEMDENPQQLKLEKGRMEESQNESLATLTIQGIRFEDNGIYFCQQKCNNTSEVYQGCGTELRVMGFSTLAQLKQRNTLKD

T3: human CD79B antigen (coated in the ELISA of the anti-human CD79B mouse antibodies) (human, UniProt P40259 29-159)
T3 construct: extracellular domain; The ELISA protocols only say 'antigen'
T3 sequence (looked up): T2 sequence

T4: human CD79B-His protein (Cat. #29750-H08H, Sino Biological) (human, UniProt P40259 29-159)
T4 construct: also called human CD79B protein; CD79B protein
T4 sequence (looked up): T2 sequence

B1: hAb017-10 (antibody, human IgG1, kappa, V domains shown)
VH: EVQLVQSGAEVKKPGASVKVSCKASGYTFTTYGINWVKQAPGQGLEWIGEIYPRSGNIYYNEKFKGKATLTADKSTSTAYMELRSLRSDDTAVYYCARGSDYDGDFAYWGQGTLVTVSS
VL: DVVMTQTPLSLPVTPGEPASISCRSSQSIVHHDGNTYLEWYLQKPGQSPQLLIYKVSNRFSGVPDRFSGSGSGTDFTLKISRVEAEDVGVYYCFQGSHVPWTFGGGTKVEIKR
notes: Humanized antibody; also called hAb017-10 humanized antibody
B2: hAb015-10 (antibody, human IgG1, kappa, V domains shown)
VH: EVQLVQSGAEVKKPGSSVKVSCKASGSSFSSYGINWVKQAPGQGLEWIGEIFPRSGNTYYNEKFEGRATLTADKSTSTAYMELRSLRSEDTAVYYCAKGDLGDFDYWGQGTTVTVSS
VL: B1 VL with V2F, H32S, L38F, Q50K
notes: Humanized antibody; also called hAb015-10 humanized antibody; humanized mAb015
B3: mAb015 (antibody, V domains shown)
VH: QVQLQQSGAELARPGASVKLSCKASGSSFTSYGINWVKQRTGQGLEWIGEIFPRSGNTYYNEKFEGKATLTADKSSSTAYMELRSLTSEDSAVYFCAKGDLGDFDYWGQGTTLTVSS
VL: DFLMTQTPLSLPVRLGDQASISCRSSQSIVHSDGNTYFEWYLQKPGQSPKLLIYKVSNRFSGVPDRFSGSGSGTDFTLKISRVEAEDLGVYYCFQGSHVPWTFGGGTKLEIK
notes: Mouse monoclonal antibody from hybridoma; also called 83B2G2
B4: mAb017 (antibody, V domains shown)
VH: QVQLQQSGAELARPGASVKLSCKASGYTFTTYGINWVKQRTGQGLEWIGEIYPRSGNIYYNEKFKGKATLTADKSSSTAYMELRSLTSEDSAVYFCARGSDYDGDFAYWGQGTLVTVSA
VL: B3 VL with F2V, R14S, S32H, F38L, K108Q
notes: Mouse monoclonal antibody from hybridoma; also called 86F11F6
B5: mAb016 (antibody, V domains shown)
VH: QVQLQQSGAELARPGASVKLSCKASGYIFTNYGIIWVKQRTGQGLEWIGDIFPGSGNTYYNENFKGKATLTADKSSSTAYMELRSLTSEDSAVYFCSRGELGDFDYWGQGTTLTVSS
VL: B3 VL with D1V, F2V, R14S, S28N, N35T, F38L, V90I
B6: ADC-8 (antibody, human IgG1, kappa, V domains shown)
VH: EVQLVESGGGLVQPGGSLRLSCAASGYTFSSYWIEWVRQAPGKGLEWIGEILPGGGDTNYNEIFKGRATFSADTSKNTAYLQMNSLRAEDTAVYYCTRRVPIRLDYWGQGTLVTVSS
VL: DIQLTQSPSSLSASVGDRVTITCKASQSVDYEGDSFLNWYQQKPGKAPKLLIYAASNLESGVPSRFSGSGSGTDFTLTISSLQPEDFATYYCQQSNEDPLTFGQGTKVEIKR
modifications: MC-VC-PAB-MMAE coupled to cysteines after TCEP reduction; positions not given; MC-VC-PAB-MMAE coupled to cysteines after TCEP reduction; positions not given; mean n=3.59 per antibody
B7: ADC-7 (antibody, human IgG1, kappa, V domains shown)
VH: B2 VH
VL: B1 VL with V2F, H32S, L38F, Q50K
modifications: compound D coupled to cysteines after TCEP reduction; positions not given; compound D (exatecan-type linker-drug, Topo I inhibitor) coupled to cysteines after TCEP reduction; positions not given; mean n=5.84 per antibody
B8: ADC-5 (antibody, human IgG1, kappa, V domains shown)
VH: B2 VH
VL: B1 VL with V2F, H32S, L38F, Q50K
modifications: compound D coupled to cysteines after TCEP reduction; positions not given; compound D (exatecan-type linker-drug, Topo I inhibitor) coupled to cysteines after TCEP reduction; positions not given; mean n=1.81 per antibody
notes: Antibody-drug conjugate of hAb015-10; also called HAB015-10-cys-D, with a DAR value of about 2
B9: ADC-6 (antibody, human IgG1, kappa, V domains shown)
VH: B2 VH
VL: B1 VL with V2F, H32S, L38F, Q50K
modifications: compound D coupled to cysteines after TCEP reduction; positions not given; compound D (exatecan-type linker-drug, Topo I inhibitor) coupled to cysteines after TCEP reduction; positions not given; mean n=3.46 per antibody
B10: ADC-3 (antibody, human IgG1, kappa, V domains shown)
VH: B2 VH
VL: B1 VL with V2F, H32S, L38F, Q50K
modifications: MC-vc-PAB-MMAE coupled to cysteines after TCEP reduction; positions not given; MC-vc-PAB-MMAE coupled to cysteines after TCEP reduction; positions not given; mean n=3.09 per antibody
notes: Antibody-drug conjugate of hAb015-10; DAR 3.09; also called hAb015-10-cys-MC-vc-PAB-MMAE
B11: ADC-1 (antibody, human IgG1, kappa, V domains shown)
VH: B2 VH
VL: B1 VL with V2F, H32S, L38F, Q50K
modifications: compound B coupled to cysteines after TCEP reduction; positions not given; compound B (eribulin-derivative linker-drug) coupled to cysteines after TCEP reduction; positions not given; mean n=3.06 per antibody
notes: Antibody-drug conjugate of hAb015-10; DAR 3.06; also called hAb015-10-cys-B
B12: ADC-2 (antibody, human IgG1, kappa, V domains shown)
VH: B2 VH
VL: B1 VL with V2F, H32S, L38F, Q50K
modifications: compound A coupled to cysteines after TCEP reduction; positions not given; compound A (Malei-PEG2-vc-PAB-MMAE) coupled to cysteines after TCEP reduction; positions not given; mean n=3.68 per antibody
notes: Antibody-drug conjugate of hAb015-10; DAR 3.68; also called hAb015-10-cys-Malei-PEG2-vc-PAB-MMAE
B13: ADC-4 (antibody, human IgG1, kappa, V domains shown)
VH: B2 VH
VL: B1 VL with V2F, H32S, L38F, Q50K
modifications: compound C coupled to cysteines after TCEP reduction; positions not given; compound C (linker-drug) coupled to cysteines after TCEP reduction; positions not given; mean n=4.52 per antibody
notes: Antibody-drug conjugate of hAb015-10; DAR 4.52; also called hAb015-10-cys-C
B14: SN8 (antibody, human IgG1, kappa, V domains shown)
VH: B6 VH
VL: B6 VL
notes: also called positive control antibody; the antibody in Polivy (polatuzumab vedotin)

Target: T1, human CD79B on the surface of cells …
Test: FACS on DoHH2 cells

| EC50 | Binder |
| --- | --- |
| 0.55 nM | B1 |
| 0.4 nM | B2 |

Target: T2, fusion protein of human CD79B …
Test: SPR, Human CD79B-His protein

| Kd | Binder |
| --- | --- |
| 4.3 nM | B1 |
| 1.5 nM | B2 |

Target: T3, human CD79B antigen (coated in the …)
Test: ELISA on coated human CD79B antigen
Experimental: 2) Assay on anti-human CD79B mouse monoclonal antibodies by ELISA A 96-well plate was coated with 1 μg/mL antigen at 50 μL/well and incubated in a refrigerator at 4° C. overnight. The next day, the coated antigen plate was washed once (washing solution: 1× PBST). After washing, the plate was blocked with 1% BSA blocking solution prepared in 1× PBST at 37° C. for 1 h. After washing the plate 3 times with 1× PBST, 50 μL of antibody diluted in a 1:10 ratio from 100 nM was added, and the plate was incubated in an incubator at 37° C. for 1 h. After washing the plate 3 times with 1× PBST, 100 μL of goat anti-mouse secondary antibody diluted in a 1:5000 ratio was added, and the plate was incubated in an incubator at 37° C. for 0.5 h. After washing the plate, TMB color development solutions A and B were mixed in a 1:1 ratio for color development. 15 min later, the color development reaction was stopped with 1 N hydrochloric acid. […] value was read at 450 nm on a Spectra Max M5 microplate reader.

| EC50 (read off the curve) | Binder |
| --- | --- |
| 0.1 to 0.2 nM | B3 |
| 0.1 to 0.2 nM | B4 |
| 0.1 to 0.2 nM | B5 |

Target: T1, human CD79B on the surface of cells …
Test: cell-based or functional assay

| IC50 of in vitro proliferation, DoHH2 cells (MTT, 72 h) | IC50 of in vitro proliferation, WSU-DLCL2 cells (MTT, 72 h) | Binder |
| --- | --- | --- |
| 0.0806 µg/mL | 0.117 µg/mL | B6 |
| 0.002 µg/mL | 0.0534 µg/mL | B7 |
| 0.0085 µg/mL | 0.0683 µg/mL | B8 |
| 0.0033 µg/mL | 0.0542 µg/mL | B9 |
| 0.0033 µg/mL | 0.0059 µg/mL | B10 |

Target: T2, fusion protein of human CD79B …
Test: ELISA on Human CD79B-His protein

| EC50 | Binder |
| --- | --- |
| 0.06 nM | B1 |
| 0.05 nM | B2 |

Target: T1, human CD79B on the surface of cells …
Test: cell-based or functional assay
Remark: another data set of the same source

| Endocytosis rate (4 h), DoHH2 cells | Binder |
| --- | --- |
| 76% | B6 |
| 68% | B7 |
| 73% | B11 |
| 76% | B8 |
| 66% | B12 |
| 75% | B9 |
| 81% | B13 |
| 70% | B10 |

Target: T4, human CD79B-His protein (Cat. …)
Test: Biacore T200, antibody captured by anti-human capture antibody on CM5, 1:1 Langmuir fit; EC50
Excerpt: Experimental procedures: human antibody capture antibodies were covalently coupled to a CM5 biochip according to the method described instructions of the human antibody capture kit for affinity capture of a certain amount of CD79B antibody.
Statistics and analysis of data: data were fitted by BIAevaluation version 4.1, GE software using a (1:1) Langmuir model to obtain affinity values.

| EC50 | Binder |
| --- | --- |
| 0.38 nM | B2 |

Target: T1, human CD79B on the surface of cells …
Test: FACS on DoHH2 cells
Remark: another data set of the same source
Experimental: 3) Assay on anti-human CD79B mouse monoclonal antibodies by FACS The cell suspension of DoHH2 cells was centrifuged, resuspended in PBS containing 0.1% BSA, and counted. 100 μL of antibody diluted in a 1:10 ratio from 100 nM was added, and the cells were incubated at room temperature for 1 h and washed three times. Then Anti-Mouse IgG (Fc specific)-FITC secondary antibody was added, and the cells were incubated at room temperature for 30 min away from the light, washed three times, gently resuspended in PBS containing 0.1% BSA, and loaded on the machine for assay.

| EC50 (read off the curve) | Binder |
| --- | --- |
| ~0.03 µg/mL | B3 |
| ~0.02 µg/mL | B4 |
| ~0.02 µg/mL | B5 |
| ~0.09 µg/mL | B14 |
